From patent US20050048477A1 (published 2005) come the findings set out here.

This assay addresses T1, Gal80-Fpr1p fusion (yeast, UniProt P04387 1-435; P20081 1-114).
T1 construct: Encoded on a pRS416 backbone; also called pGP82; not shown: 2 HA tags derived from oligonucleotides GANG33/34 (DNA only)
T1 sequence (looked up): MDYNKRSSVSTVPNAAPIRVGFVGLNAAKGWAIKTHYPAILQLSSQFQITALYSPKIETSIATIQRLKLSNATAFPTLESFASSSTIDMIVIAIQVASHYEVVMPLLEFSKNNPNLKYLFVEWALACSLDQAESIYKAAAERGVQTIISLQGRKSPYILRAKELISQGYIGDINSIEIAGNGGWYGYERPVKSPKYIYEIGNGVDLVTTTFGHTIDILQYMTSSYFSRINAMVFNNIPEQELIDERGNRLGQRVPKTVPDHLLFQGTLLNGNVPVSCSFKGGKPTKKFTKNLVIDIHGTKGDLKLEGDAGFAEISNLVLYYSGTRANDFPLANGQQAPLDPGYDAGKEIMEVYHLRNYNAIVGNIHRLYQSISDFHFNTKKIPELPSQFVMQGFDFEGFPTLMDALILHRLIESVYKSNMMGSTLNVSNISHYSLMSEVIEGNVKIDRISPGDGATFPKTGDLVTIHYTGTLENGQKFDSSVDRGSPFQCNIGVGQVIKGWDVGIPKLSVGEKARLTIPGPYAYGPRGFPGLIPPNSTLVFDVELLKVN
Put plainly: 80-Trap assay in yeast, HIS3 reporter growth without galactose. The method, then: FIG. 4A illustrates FK506-dependent HIS3 reporter expression. Gal80-Fpr1 designates the Gal80-Fpr1p fusion. Myr-Cna1 designates the plasma membrane targeted Cna1p. Myr-Cmd1 is a plasma membrane targeted calmodulin and is used as a control. The nutrient agar plates used here lacked histidine, tryptophan and uracil and contained 0.5% galactose/3% glycerol/2% lactic acid as carbon source. FK506 was used at 0.25 μg/mL where indicated. Identical results were obtained using nutrient agar lacking galactose (data not shown). […] The nutrient agar plate lacked histidine, tryptophan and uracil and contained 3% glycerol/2% lactic acid as carbon source. Galactose was used at 0.5% where indicated. The lack of tryptophan and uracil are required for selection and maintenance in yeast of the two plasmids Gal80-Fpr1p and Myr-Cna1p, and the lack of histidine is to provide a selective assay for the protein-protein interaction that activates the HIS3 reporter gene carried on a yeast chromosome.
FK506 was used to trigger the interaction between a Gal80-Fpr1p fusion and plasma membrane-localized Myr-Can1p. […] Induction of the galactose-inducible HIS3 reporter gene was assayed. […] It has been reported that Fpr1p also interacts with Hom3p, the aspartokinase, in the absence of FK506 in a yeast two-hybrid assay (Alarcon and Heitman, 1997, Mol. Cell Bio., 17: 5968-5975).

B1: Myr-Hom3p (other, yeast)
chain: MGCTVSTQTIGDESDPMPMDFQPTSSHSNWVVQKFGGTSVGKFPVQIVDDIVKHYSKPDGPNNNVAVVCSARSSYTKAEGTTSRLLKCCDLASQESEFQDIIEVIRQDHIDNADRFILNPALQAKLVDDTNKELELVKKYLNASKVLGEVSSRTVDLVMSCGEKLSCLFMTALCNDRGCKAKYVDLSHIVPSDFSASALDNSFYTFLVQALKEKLAPFVSAKERIVPVFTGFFGLVPTGLLNGVGRGYTDLCAALIAVAVNADELQVWKEVDGIFTADPRKVPEARLLDSVTPEEASELTYYGSEVIHPFTMEQVIRAKIPIRIKNVQNPLGNGTIIYPDNVAKKGESTPPHPPENLSSSFYEKRKRGATAITTKNDIFVINIHSNKKTLSHGFLAQIFTILDKYKLVVDLISTSEVHVSMALPIPDADSLKSLRQAEEKLRILGSVDITKKLSIVSLVGKHMKQYIGIAGTMFTTLAEEGINIEMISQGANEINISCVINESDSIKALQCIHAKLLSERTNTSNQFEHAIDERLEQLKRLGI
modifications: N-myristoylation at the N-terminal signal
notes: Encoded on a pRS424 backbone under the ADH2 promoter; also called pGP130; not shown: CFP amplified from pDH3
Regarding B1, the binding result was “binds”.
